# Results as given in patent US20250043302A1, “MUTATED HYDROXYPHENYLPYRUVATE DIOXYGENASE POLYPEPTIDE, AND CODING GENE AND USE THEREOF” (BEIJING DABEINONG BIOTECHNOLOGY CO., LTD., priority 2021, published 2025).
# B1: AsHPPDm-A107-F372A-02: nucleotide sequence encoding Avena sativa HPPD with A107 deletion+F372A; vector DBN11778 (nucleic acid)
# DNA: ATGCCACCTACTCCAGCTACAGCTACTGGTGCTGCTGCTGCTGCCGTTACTCCTGAGCACGCTGCCAGGTCATTCCCCAGGGTGGTTCGCGTGAACCCCAGATCTGATAGGTTCCCAGTTCTGAGCTTCCACCATGTTGAGCTGTGGTGCGCTGATGCTGCTTCTGCTGCTGGCAGGTTCTCTTTCGCTCTTGGTGCTCCACTCGCTGCTAGATCTGATCTGTCTACAGGAAATAGCGCTCATGCCTCACTCCTGCTTCGCTCAGGTGCTTTGGCCTTCCTCTTCACCGCTCCATATGCTCCCCCACCTCAGGAGGCTACTGCTGCTGCTACAGCCTCCATTCCAAGCTTCTCAGCTGATGCCGCTAGAACCTTCGCTGCTGCTCATGGACTTGCCGTGAGGTCTGTTGGTGTTCGCGTGGCTGATGCTGCTGAGGCTTTCAGAGTTTCCGTTGCCGGCGGAGCTAGGCCAGCTTTCGCTCCTGCTGATTTGGGACATGGTTTCGGCCTGGCTGAGGTTGAGCTTTACGGTGACGTGGTTCTCCGCTTCGTGTCTTACCCAGATGAGACTGACCTGCCTTTCCTTCCCGGCTTCGAGAGAGTTTCCTCTCCTGGTGCCGTGGATTACGGCCTGACAAGGTTCGACCACGTGGTTGGAAACGTTCCCGAGATGGCTCCAGTGATCGATTACATGAAGGGCTTCCTTGGATTCCATGAGTTCGCCGAGTTCACTGCTGAGGACGTGGGAACCACTGAGTCCGGTTTGAACTCTGTGGTTCTCGCCAACAATTCTGAGGCTGTTTTGCTCCCTCTGAATGAGCCTGTGCATGGAACCAAGAGGAGAAGCCAGATTCAAACTTACCTGGAGTACCACGGTGGCCCTGGAGTTCAGCATATCGCCCTTGCTTCTAATGATGTGTTGCGCACACTCAGAGAGATGCGCGCCAGAACCCCCATGGGAGGTTTCGAGTTCATGGCCCCACCACAGGCTAAGTACTACGAGGGCGTTAGAAGGATTGCTGGAGACGTGTTGAGCGAGGAGCAGATCAAGGAGTGCCAAGAGCTGGGTGTTCTTGTGGATAGGGATGACCAGGGCGTTCTGCTTCAAATTGCCACTAAGCCAGTGGGCGACCGCCCTACATTCTTCCTTGAGATGATTCAAAGAATCGGCTGCATGGAGAAGGATGAGGTTGGACAGGAGTACCAAAAGGGCGGATGCGGTGGCTTCGGAAAGGGTAACTTCAGCGAGTTGTTCAAGTCAATCGAGGACTACGAGAAGAGCCTCGAGGTGAAGCAGTCAGTGGTTGCCCAAAAGTCCTGA
# modifications: AsHPPDm-A107-F372A-02 Nucleotide Sequence
# notes: vector DBN11778
# B2: PfHPPDm-F383W-02: nucleotide sequence encoding Pseudomonas fluorescens HPPD with F383W; vector DBN11772 (nucleic acid)
# DNA: ATGGCCGATTTGTACGAGAACCCAATGGGACTCATGGGTTTCGAGTTCATTGAGTTCGCTTCCCCCACCCCAGGTACTTTGGAGCCTATTTTCGAGATCATGGGCTTCACTAAGGTTGCCACACACAGGTCTAAGAATGTGCATCTCTACCGCCAAGGAGAGATTAACCTGATCCTTAACAATGAGCCTAATAGCATCGCCTCATACTTCGCTGCTGAGCATGGTCCATCTGTTTGCGGCATGGCTTTCAGAGTGAAGGATTCACAAAAGGCCTACAACAGGGCTTTGGAGCTCGGCGCCCAGCCCATTCATATCGACACCGGACCTATGGAGCTGAATCTTCCTGCCATTAAGGGCATCGGCGGAGCTCCATTGTACCTCATTGATCGCTTCGGCGAGGGCTCCTCTATCTACGATATCGACTTCGTGTACCTGGAGGGCGTTGAGAGAAACCCTGTGGGAGCTGGTCTGAAGGTTATCGACCACCTTACTCATAATGTTTACAGAGGAAGGATGGTGTACTGGGCCAACTTCTACGAGAAGCTGTTCAATTTCCGCGAGGCTAGATACTTCGATATTAAGGGCGAGTACACAGGACTTACCTCCAAGGCCATGTCTGCTCCCGACGGTATGATTAGGATCCCATTGAACGAGGAGAGCTCAAAGGGCGCCGGACAGATTGAGGAGTTCCTCATGCAATTCAATGGTGAAGGCATCCAGCACGTTGCTTTCCTGACAGATGACCTTGTGAAGACCTGGGATGCCCTCAAGAAGATTGGCATGAGGTTCATGACCGCTCCACCTGACACTTACTACGAGATGTTGGAGGGACGCCTCCCTGATCATGGCGAGCCCGTTGACCAGCTGCAAGCTAGAGGAATCCTCCTGGATGGTTCCTCTGTGGAGGGCGACAAGAGGCTTTTGCTCCAAATTTTCAGCGAGACTCTTATGGGACCCGTGTGGTTCGAGTTCATCCAGAGGAAGGGCGATGACGGATTCGGCGAGGGCAACTTCAAGGCCCTGTTCGAGTCTATTGAGAGAGATCAGGTGAGGCGCGGCGTTCTTACAGCTGACTGA
# modifications: PfHPPDm-F383W-02 Nucleotide Sequence
# notes: vector DBN11772
# Legend:
# [1] = tested on: Arabidopsis thaliana T1 plants; assay: Isoxaflutole tolerance of transgenic Arabidopsis thaliana T1 plants (spray, bleached leaf area grade, damage score); type: in vivo; conditions: Table 11; for Classification and statistics of the grade of pesticide damage Grade 0: number of plants at grade 0; for Classification and statistics of the grade of pesticide damage Grade 1: number of plants at grade 1; for Classification and statistics of the grade of pesticide damage Grade 2: number of plants at grade 2; for Classification and statistics of the grade of pesticide damage Grade 3: number of plants at grade 3; for Scores: pesticide damage score;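 on Scores: Weighted damage index from 0 to 100 where higher means more damage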
# Source text: (§1) T1 transformants were initially selected from the untransformed seeds using a glufosinate selection scheme. The Arabidopsis thaliana T1 plants (AsHPPD-02) into which the AsHPPD-02 nucleotide sequence was introduced, the Arabidopsis thaliana T1 plants (AsHPPDm-F372A-02) into which the AsHPPDm-F372A-02 nucleotide sequence was introduced, the Arabidopsis thaliana T1 plants (AsHPPDm-F383W-02) into which the AsHPPDm-F383W-02 nucleotide sequence was introduced, the Arabidopsis thaliana T1 plants (AsHPPDm-F372A-F383W-02) into which the AsHPPDm-F372A-F383W-02 nucleotide sequence was introduced, the Arabidopsis thaliana T1 plants (DBN11726N) into which the control recombinant expression vector DBN11726N was introduced, and the wild-type Arabidopsis thaliana plants (CK) (18 days after sowing) were sprayed respectively with topramezone at three concentrations (100 g ai/ha (four-fold field concentration, 4×), 200 g ai/ha (eight-fold field concentration, 8×), and 0 g ai/ha (water, 0×)), isoxaflutole at three concentrations (140 g ai/ha (two-fold field concentration, 2×), 280 g ai/ha (four-fold field concentration, 4×), and 0 g ai/ha (water, 0×)), and mesotrione at three concentrations (210 g ai/ha (two-fold field concentration, […]), 420 g ai/ha (four-fold field concentration, 4×), and 0 g ai/ha (water, 0×)), to determine the tolerance of Arabidopsis thaliana to the herbicides. The degree of damage caused by the herbicide was measured for each plant according to the proportion of bleached leaf area (the proportion of bleached leaf area=bleached leaf area/total leaf area×100%) 7 days after spraying (7 DAT): the case where there is basically no bleached phenotype is defined as grade 0, the case where the proportion of bleached leaf area is less than 50% is defined as grade 1, the case where the proportion of bleached leaf area is more than 50% is defined as grade 2, and the case where the proportion of bleached leaf area is 100% grade is defined as grade 3.
# (§2) According to the method as described above in point 6 of Example 1, the aforementioned Arabidopsis thaliana T1 plants and wild-type Arabidopsis thaliana plants (CK) (18 days after sowing) were sprayed respectively with topramezone at three concentrations (25 g ai/ha (one-fold field concentration, 1×). 100 g ai/ha (four-fold field concentration, 4×), and 0 g ai/ha (water, 0×)), isoxaflutole at three concentrations (35 g ai/ha (half-fold field concentration, 0.5×). 70 g ai/ha (one-fold field concentration, 1×), and 0 g ai/ha (water, 0×)), and mesotrione at three concentrations (52.5 g ai/ha (half-fold field concentration, 0.5×), 105 g ai/ha (one-fold field concentration, 1×), and 0 g ai/ha (water, 0×)) to detect the tolerance of Arabidopsis thaliana to the herbicides.
# (§3) According to the method as described above in point 6 of Example 1, the aforementioned Arabidopsis thaliana T1 plants and wild-type Arabidopsis thaliana plants (CK) (18 days after sowing) were sprayed with topramezone at three different concentrations (i.e., 100 g ai/ha (four-fold field concentration, 4×), 200 g ai/ha (eight-fold field concentration, 8×) and 0 g ai/ha (water, 0×)), isoxaflutole at three different concentrations (i.e., 140 g ai/ha (two-fold field concentration, 2×), 280 g ai/ha (four-fold field concentration, 4×) and 0 g ai/ha (water, 0×)), and mesotrione at three different concentrations (i.e., 210 g ai/ha (two-fold field concentration, 2×), 420 g ai/ha (four-fold field concentration, 4×) and 0 g ai/ha (water, 0×)) respectively to detect the herbicide tolerance of Arabidopsis thaliana. […]
# [2] = tested on: Arabidopsis thaliana T1 plants; assay: Mesotrione tolerance of transgenic Arabidopsis thaliana T1 plants (spray, bleached leaf area grade, damage score); type: in vivo; set-up: Scores: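 damage score 0-100 computed as Σ(N×S)/(T×M)×100 over grades 0-3 with higher meaning more damage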; conditions: for Classification and statistics of the grade of pesticide damage Grade 0: number of plants at grade 0; for Classification and statistics of the grade of pesticide damage Grade 1: number of plants at grade 1; for Classification and statistics of the grade of pesticide damage Grade 2: number of plants at grade 2; for Classification and statistics of the grade of pesticide damage Grade 3: number of plants at grade 3; for Grade 0 (classification and statistics of the grade of pesticide damage; number of plants) / Grade 1 (classification and statistics of the grade of pesticide damage; number of plants) / Grade 2 (classification and statistics of the grade of pesticide damage; number of plants) / Grade 3 (classification and statistics of the grade of pesticide damage; number of plants): 16 plants
# Source text: as §1, §2, §3
# [3] = Table 12, mesotrione 210 g ai/ha (2×)
# [4] = Table 12, mesotrione 420 g ai/ha (4×)
# [5] = mesotrione 52.5 g ai/ha, Arabidopsis thaliana T1 plants
# [6] = mesotrione 105 g ai/ha, Arabidopsis thaliana T1 plants
molecule,measurement,setting,value
B1,Resistance evaluation,[1]; isoxaflutole 140 g ai/ha (2×),Moderately
same,Classification and statistics of the grade of pesticide damage Grade 0,[1]; isoxaflutole 140 g ai/ha (2×),5
same,Classification and statistics of the grade of pesticide damage Grade 1,[1]; isoxaflutole 140 g ai/ha (2×),7
same,Classification and statistics of the grade of pesticide damage Grade 2,[1]; isoxaflutole 140 g ai/ha (2×),4
same,Classification and statistics of the grade of pesticide damage Grade 3,[1]; isoxaflutole 140 g ai/ha (2×),0
same,Scores,[1]; isoxaflutole 140 g ai/ha (2×),31
same,Resistance evaluation,[1]; isoxaflutole 280 g ai/ha (4×),Poorly resistant
same,Classification and statistics of the grade of pesticide damage Grade 0,[1]; isoxaflutole 280 g ai/ha (4×),0
same,Classification and statistics of the grade of pesticide damage Grade 1,[1]; isoxaflutole 280 g ai/ha (4×),1
same,Classification and statistics of the grade of pesticide damage Grade 2,[1]; isoxaflutole 280 g ai/ha (4×),15
same,Classification and statistics of the grade of pesticide damage Grade 3,[1]; isoxaflutole 280 g ai/ha (4×),0
same,Scores,[1]; isoxaflutole 280 g ai/ha (4×),65
same,Resistance evaluation,[2]; [3],Moderately
same,Classification and statistics of the grade of pesticide damage Grade 0,[2]; [3],6
same,Classification and statistics of the grade of pesticide damage Grade 1,[2]; [3],7
same,Classification and statistics of the grade of pesticide damage Grade 2,[2]; [3],1
same,Classification and statistics of the grade of pesticide damage Grade 3,[2]; [3],2
same,Scores,"[2]; Table 12, mesotrione 210 g ai/ha (2×), pesticide damage score",31
same,Resistance evaluation,[2]; [4],Poorly resistant
same,Classification and statistics of the grade of pesticide damage Grade 0,[2]; [4],1
same,Classification and statistics of the grade of pesticide damage Grade 1,[2]; [4],7
same,Classification and statistics of the grade of pesticide damage Grade 2,[2]; [4],8
same,Classification and statistics of the grade of pesticide damage Grade 3,[2]; [4],0
same,Scores,"[2]; Table 12, mesotrione 420 g ai/ha (4×), pesticide damage score",48
B2,Resistance evaluation,[2]; [5],Non-resistant
same,Scores,[2]; [5],77
same,Grade 0 (classification and statistics of the grade of pesticide damage; number of plants),[2]; [5],0
same,Grade 1 (classification and statistics of the grade of pesticide damage; number of plants),[2]; [5],0
same,Grade 2 (classification and statistics of the grade of pesticide damage; number of plants),[2]; [5],11
same,Grade 3 (classification and statistics of the grade of pesticide damage; number of plants),[2]; [5],5
same,Resistance evaluation,[2]; [6],Non-resistant
same,Scores,[2]; [6],100
same,Grade 0 (classification and statistics of the grade of pesticide damage; number of plants),[2]; [6],0
same,Grade 1 (classification and statistics of the grade of pesticide damage; number of plants),[2]; [6],0
same,Grade 2 (classification and statistics of the grade of pesticide damage; number of plants),[2]; [6],0
same,Grade 3 (classification and statistics of the grade of pesticide damage; number of plants),[2]; [6],16
